# Patent US11819556B2, “Stabilized compositions of radionuclides and uses thereof” (RayzeBio, Inc., priority 2021, dated 2023)
# Marks after values point to notes of the source that are not given here.
# Assay: EGCg concentration: radio-TLC purity
# Assay type: physicochemical
# Details: 25 μCi/ml, 100 mM sodium ascorbate pH 5.80, 0.05 mg/ml DTPA, saline, 25° C.
# Method: The mixture was kept at room temperature (25° C.). At different time points, radioactive components of the formulated dose were measured by radio-TLC as described in the table below: […]
substance,measurement,setting,value
"(2,2′,2″-(10-(2-4(R)-1-(((4R,7S,10S,13R,16S,19R)-13-((1H-indol-3-yl)methyl)-10-(4-aminobutyl)-4-(((1S,2R)-1-carboxy-2-hydroxypropyl)carbamoyl)-16-(4-hydroxybenzyl)-7-((R)-1-hydroxyethyl)-6,9,12,15,18-pentaoxo-1,2-dithia-5,8,11,14,17-pentaazacycloicosan-19-yl)amino)-1-oxo-3-phenylpropan-2-yl)amino)-2-oxoethyl)-1,4,7,10-tetraazacyclododecane-1,4,7-triyl)triacetate; actinium-225(3+)) [[^225Ac]Ac-DOTA-TATE]",Percentage of ^225Ac present in [^225Ac]Ac-DOTA-TATE,"EGCg 0 mg/ml, 0 hour",99.90%
same,Percentage of ^225Ac present in [^225Ac]Ac-DOTA-TATE,"EGCg 0 mg/ml, 24 hours",99.42%
same,Percentage of ^225Ac present in [^225Ac]Ac-DOTA-TATE,"EGCg 0 mg/ml, 48 hours",98.73%
same,Percentage of ^225Ac present in [^225Ac]Ac-DOTA-TATE,"EGCg 0 mg/ml, 72 hours",97.77%
same,Percentage of ^225Ac present in [^225Ac]Ac-DOTA-TATE,"EGCg 0 mg/ml, 96 hours",97.13%
same,Percentage of ^225Ac present in [^225Ac]Ac-DOTA-TATE,"EGCg 0 mg/ml, 120 hours, non-homogeneous sampling",98.09* %
same,Percentage of ^225Ac present in [^225Ac]Ac-DOTA-TATE,"EGCg 0 mg/ml, 144 hours",94.64%
same,Percentage of ^225Ac present in [^225Ac]Ac-DOTA-TATE,"EGCg 0.5 mg/ml, 0 hour",99.61%
same,Percentage of ^225Ac present in [^225Ac]Ac-DOTA-TATE,"EGCg 0.5 mg/ml, 24 hours",98.92%
same,Percentage of ^225Ac present in [^225Ac]Ac-DOTA-TATE,"EGCg 0.5 mg/ml, 48 hours",98.48%
same,Percentage of ^225Ac present in [^225Ac]Ac-DOTA-TATE,"EGCg 0.5 mg/ml, 72 hours",97.97%
same,Percentage of ^225Ac present in [^225Ac]Ac-DOTA-TATE,"EGCg 0.5 mg/ml, 96 hours",96.44%
same,Percentage of ^225Ac present in [^225Ac]Ac-DOTA-TATE,"EGCg 0.5 mg/ml, 120 hours",95.65%
same,Percentage of ^225Ac present in [^225Ac]Ac-DOTA-TATE,"EGCg 0.5 mg/ml, 144 hours",93.04%
same,Percentage of ^225Ac present in [^225Ac]Ac-DOTA-TATE,"EGCg 1 mg/ml, 0 hour",99.76%
same,Percentage of ^225Ac present in [^225Ac]Ac-DOTA-TATE,"EGCg 1 mg/ml, 24 hours",99.14%
same,Percentage of ^225Ac present in [^225Ac]Ac-DOTA-TATE,"EGCg 1 mg/ml, 48 hours",98.83%
same,Percentage of ^225Ac present in [^225Ac]Ac-DOTA-TATE,"EGCg 1 mg/ml, 72 hours",98.04%
same,Percentage of ^225Ac present in [^225Ac]Ac-DOTA-TATE,"EGCg 1 mg/ml, 96 hours",97.15%
same,Percentage of ^225Ac present in [^225Ac]Ac-DOTA-TATE,"EGCg 1 mg/ml, 120 hours",94.82%
same,Percentage of ^225Ac present in [^225Ac]Ac-DOTA-TATE,"EGCg 1 mg/ml, 144 hours",95.65%
same,Percentage of ^225Ac present in [^225Ac]Ac-DOTA-TATE,"EGCg 3 mg/ml, 0 hour",99.81%
same,Percentage of ^225Ac present in [^225Ac]Ac-DOTA-TATE,"EGCg 3 mg/ml, 24 hours",98.57%
same,Percentage of ^225Ac present in [^225Ac]Ac-DOTA-TATE,"EGCg 3 mg/ml, 48 hours",98.00%
same,Percentage of ^225Ac present in [^225Ac]Ac-DOTA-TATE,"EGCg 3 mg/ml, 72 hours",96.55%
same,Percentage of ^225Ac present in [^225Ac]Ac-DOTA-TATE,"EGCg 3 mg/ml, 96 hours",96.42%
same,Percentage of ^225Ac present in [^225Ac]Ac-DOTA-TATE,"EGCg 3 mg/ml, 120 hours",96.05%
same,Percentage of ^225Ac present in [^225Ac]Ac-DOTA-TATE,"EGCg 3 mg/ml, 144 hours",90.71%
